Assay results from article PMC11672753 (Plant Biotechnology Journal, 2024).

Target: T1, SARS-CoV-2 RBD (Wuhan), hexahistidine-tagged (SARS-CoV-2, UniProt P0DTC2)
T1 construct: also called recombinant RBD protein
Assay: BLI
Settings: both partners purified

| Binder | binding result |
| --- | --- |
| M15 (plant-produced COVA2-15, conventional IgG1) (antibody, V domains shown) VH: QVQLLESGGGLVQPGGSLRLSCAASGFTFSSYAMSWVRQAPGKGLEWASAISGSGGSTYYADSVEGRFTISRDNSKNTLYLQMNSLRAEDTAVYYCAKDTGYCGDDCYIKLIRGGPDYWGQGTLVTVSS VL: DIVMTQSPLSLPVTLGQPASISCRSSQSLVYSDGNTFLNWFQQRPGQSPRRLIYQVSNRDSGVPDRFSGSGSGTDFTLKISRVEAEDVGVYYCMQGTHWPRTFGQGTKLEIK | binds |
| S15 (plant-produced COVA2-15, single-chain (sc)Fv-Fc format) (Fc fusion, human) VH: QVQLLESGGGLVQPGGSLRLSCAASGFTFSSYAMSWVRQAPGKGLEWASAISGSGGSTYYADSVEGRFTISRDNSKNTLYLQMNSLRAEDTAVYYCAKDTGYCGDDCYIKLIRGGPDYWGQGTLVTVSS VL: DIVMTQSPLSLPVTLGQPASISCRSSQSLVYSDGNTFLNWFQQRPGQSPRRLIYQVSNRDSGVPDRFSGSGSGTDFTLKISRVEAEDVGVYYCMQGTHWPRTFGQGTKLEIK | binds |
